Experiment [1] addresses T1, monovalent hVISTA-ECD (amino acids 32-193 of SEQ ID NO: 1 with a 7xHis tail) (human, UniProt Q9H7M9 33-193).
T1 construct: analyte of the SPR assays; also called huVISTA-His; human VISTA-ECD
The experiment in a line: SPR 37C, pH 7.4 over pH 6.0. Here is the method: (§1) For this assay, ‘029, ‘761 and ‘767were reformatted as hIgG1f isotype and were expressed as both standard hIgG1f and in hIgG1f afucosylated formats to compare against the hIgG1.3f Fc. An SPR kinetics assay was conducted to measure koff and KD binding affinity measurements for VISTA Abs at acidic and physiological pH using a Biacore® T100 instrument (GE Healthcare). […] Antibodies were diluted to 25 nM in PBST pH 7.4, and were captured across active biosensor flow cells at 5 ul/min for 45 seconds. A concentration series of 1600 - 0.78 nM (pH 7.4) and 100 - 0.78 nM (pH 6.0) monovalent hVISTA-ECD (SEQ ID NO: 325) was prepared running buffer, and was injected over the captured antibodies at 40 ul/min to measure association and dissociation. Two 15 second injections of 10 mM glycine pH 1.5 were used to regenerate the Protein A capture surface between assay cycles. Rate constants ka (kₒₙ) and kd (koff) were derived from reference flow cell and 0 nM blank-subtracted sensorgrams, and were fit to a 1:1 binding model in Biacore® T200 Evaluation Software v.2.0. The affinity constant, KD was calculated as the ratio of rate constants koff/kₒₙ for each VISTA antibody. Ratios of koff and KD at pH 7.4 / pH 6.0 were calculated to compare off-rate and affinity improvement at acidic pH relative to physiological pH.

Experiment [2] has as its target T1, monovalent hVISTA-ECD (amino acids …). The experiment can be described thus: SPR 37C, pH 6.9 over pH 6.0. Here is the method:
(§2) Human VISTA binding kinetics of P1-061029 (“ ‘029”), P1-068761 (“ ‘761”) and P1-068767 (“ ‘767”) (as IgG1.3 antibodies) were measured at pH values between pH 7.4 and pH 6.0, i.e., at pH 6.9 and pH 6.45 using a Biacore® T100 instrument (GE Healthcare). […] Antibodies were diluted to 25 nM in PBST pH 7.4, and were captured across active biosensor flow cells at 5 ul/min for 45 seconds. A concentration series of 100 - 0.78 nM monovalent hVISTA-ECD (SEQ ID NO: 325) was prepared pH 7.4, 6.9, 6.45 and 6.0 running buffers, and was injected over the captured antibodies at 40 ul/min to measure association and dissociation. Two 15 second injections of 10 mM glycine pH 1.5 were used to regenerate the Protein A capture surface between assay cycles. Rate constants ka (kₒₙ) and kd (koff) were derived from reference flow cell and 0 nM blank-subtracted sensorgrams, and were fit to a 1:1 binding model in Biacore® T200 Evaluation Software v.2.0. The affinity constant, KD was calculated as the ratio of rate constants koff/kₒₙ for each VISTA antibody. Ratios of koff and KD at each pH relative to pH 6.0 were calculated to evaluate how the VISTA koff and KD change as the buffer pH shifts to physiological, and are shown in Table 7. […] As the buffer pH shifts from acidic to physiological, VISTA koff and KD both weaken for ‘761 and ‘767. Physiological pH data for ‘761 and ‘767 for comparison is referenced from Table 7 and noted with an asterisk (*).

Experiment [3] shares this target. The experiment can be described thus: SPR 37C, pH 6.45 over pH 6.0. As for the experimental part: as §2
Experiment [4] has as its target T2, avidin (ThermoFisher Scientific catalog #21128) (UniProt P02701 25-152).
T2 construct: pI control protein
The experiment in a line: SPR 25C, Ab on Protein A, pH 6 and pH 7.4.

In experiment [5] the target is T3, BSA (Calbiochem catalog #126593) (UniProt P02769 25-607).
T3 construct: pI control protein
The experiment in a line: SPR 25C, Ab on Protein A, pH 6 and pH 7.4.

The target of experiment [6] is T1, monovalent hVISTA-ECD (amino acids …). The experiment can be described thus: SPR 37C, Ab on Protein A, hVISTA-ECD 100-0.78 nM, pH 6.0. Here is the method:
as §1

Experiment [7] shares this target. Described as above. As for the experimental part: as §2
This is another data set of the same source.

The target is the same in experiment [8]. The experiment can be described thus: SPR 37C, Ab on Protein A, hVISTA-ECD 100-0.78 nM, pH 6.9. Here is the method: as §2
Experiment [9] shares this target. The experiment can be described thus: SPR 37C, Ab on Protein A, hVISTA-ECD 1600-0.78 nM, pH 7.4. As for the experimental part:
as §1

The target is the same in experiment [10]. The experiment can be described thus: SPR 37C, Ab on Protein A, hVISTA-ECD 100-0.78 nM, pH 6.45. Here is the method: as §2

T1 sequence (Q9H7M9 other isoform, or with tags, fused parts or gaps limits assumed): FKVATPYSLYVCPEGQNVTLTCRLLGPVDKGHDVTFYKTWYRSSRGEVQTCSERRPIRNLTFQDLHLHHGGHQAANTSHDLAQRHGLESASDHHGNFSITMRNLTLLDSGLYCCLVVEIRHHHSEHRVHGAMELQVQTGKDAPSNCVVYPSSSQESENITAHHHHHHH
T3 sequence (P02769 25-607 limits assumed): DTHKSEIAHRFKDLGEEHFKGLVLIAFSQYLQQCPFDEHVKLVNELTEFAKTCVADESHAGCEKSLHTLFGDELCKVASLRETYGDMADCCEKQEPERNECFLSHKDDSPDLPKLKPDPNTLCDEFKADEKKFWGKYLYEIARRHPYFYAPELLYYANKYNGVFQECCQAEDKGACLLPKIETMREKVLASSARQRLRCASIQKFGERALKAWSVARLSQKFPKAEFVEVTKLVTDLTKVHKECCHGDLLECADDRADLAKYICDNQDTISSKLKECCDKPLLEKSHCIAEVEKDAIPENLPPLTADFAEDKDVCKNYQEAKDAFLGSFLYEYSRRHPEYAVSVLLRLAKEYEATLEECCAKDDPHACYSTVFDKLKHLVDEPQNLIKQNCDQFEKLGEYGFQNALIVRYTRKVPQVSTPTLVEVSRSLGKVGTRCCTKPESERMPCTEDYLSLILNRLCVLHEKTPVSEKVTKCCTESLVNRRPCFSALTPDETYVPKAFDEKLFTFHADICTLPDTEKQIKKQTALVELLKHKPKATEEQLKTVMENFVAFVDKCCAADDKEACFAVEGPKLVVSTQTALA
T2 sequence (P02701 25-152 limits assumed): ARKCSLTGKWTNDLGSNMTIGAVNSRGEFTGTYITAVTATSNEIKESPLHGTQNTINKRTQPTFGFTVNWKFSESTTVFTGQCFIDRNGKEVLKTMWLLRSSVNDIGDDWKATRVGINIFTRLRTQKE

B1: P1-061029.IgG1.3 (antibody)
heavy: EVQLVESGGGLVQPGKSLRLSCAASGFTLDDYAMHWVRQAPGKGLEWVSGINWNSANIGYADSVKGRFTISRDNAKNSLYLQMNSLRTEDTALYYCAKVPGYSGGWIDAFDVWGQGTMVTVSSASTKGPSVFPLAPSSKSTSGGTAALGCLVKDYFPEPVTVSWNSGALTSGVHTFPAVLQSSGLYSLSSVVTVPSSSLGTQTYICNVNHKPSNTKVDKRVEPKSCDKTHTCPPCPAPEAEGAPSVFLFPPKPKDTLMISRTPEVTCVVVDVSHEDPEVKFNWYVDGVEVHNAKTKPREEQYNSTYRVVSVLTVLHQDWLNGKEYKCKVSNKALPAPIEKTISKAKGQPREPQVYTLPPSREEMTKNQVSLTCLVKGFYPSDIAVEWESNGQPENNYKTTPPVLDSDGSFFLYSKLTVDKSRWQQGNVFSCSVMHEALHNHYTQKSLSLSPG
light: not shown
notes: IgG1.3; also called P1-061029 (parent); P1-061029-18
For the molecule B1, the “KD ratio (7.4/6)” value in experiment [1] amounted to 5.8. Further, the “kd ratio (7.4/6)” value in experiment [1] is 0.9. Also, the “KD ratio to pH 6.0” value came to 7.1 in [2] and 2.7 in [3]. The “koff ratio to pH 6.0” value in experiment [2] turned out to be 1; in experiment [3], 0.7. Also, the binding result in experiment [4] and in [5] was “no binding (tested: 10 RU; analyte 100-10 nM)” throughout. Also, the Kd worked out at 7.2 nM in experiment [6]; 2 nM in experiment [7]; 14 nM in [8]; 42 nM in experiment [9]; 5.3 nM in experiment [10]. The koff stood at 0.0079 s⁻¹ in experiment [6]; 0.0057 s⁻¹ in experiment [7]; 0.0057 s⁻¹ in experiment [8]; 0.0068 s⁻¹ in [9]; 0.004 s⁻¹ in [10]. In addition, the kon in experiment [6] was determined as 1.1e+06 M⁻¹ s⁻¹; in experiment [7] it was 2.9e+06 M⁻¹ s⁻¹; in [8] it was 410000 M⁻¹ s⁻¹; in experiment [9], 160000 M⁻¹ s⁻¹; in experiment [10] it was 740000 M⁻¹ s⁻¹.

B2: P1-068761.IgG1.3 (antibody)
heavy: EVQLVESGGGLVQPGKSLRLSCAASGFTLEDEAMHWVRQAPGKGLEWVSGINWNSEEIGYADSVKGRFTISRDNAKNSLYLQMNSLRTEDTALYYCAKVPGYSHGWIDAEDVWGQGTMVTVSSASTKGPSVFPLAPSSKSTSGGTAALGCLVKDYFPEPVTVSWNSGALTSGVHTFPAVLQSSGLYSLSSVVTVPSSSLGTQTYICNVNHKPSNTKVDKRVEPKSCDKTHTCPPCPAPEAEGAPSVFLFPPKPKDTLMISRTPEVTCVVVDVSHEDPEVKFNWYVDGVEVHNAKTKPREEQYNSTYRVVSVLTVLHQDWLNGKEYKCKVSNKALPAPIEKTISKAKGQPREPQVYTLPPSREEMTKNQVSLTCLVKGFYPSDIAVEWESNGQPENNYKTTPPVLDSDGSFFLYSKLTVDKSRWQQGNVFSCSVMHEALHNHYTQKSLSLSPG
light: not shown
notes: IgG1.3; also called P1-068761-20; P1-068761 hIgG1.3f
With B2, the “KD ratio (7.4/6)” value in experiment [1] is 2560. In [1], the “kd ratio (7.4/6)” value amounted to 26.3. In addition, the results for the “KD ratio to pH 6.0” value in [2] and in [3] were 170 and 18.4, respectively. The “koff ratio to pH 6.0” value was 13.4 in [2] and 3.2 in [3]. Moreover, the binding result in experiment [4] and in experiment [5] was “no binding (tested: 10 RU; analyte 100-10 nM)” throughout. The Kd turned out to be 4.3 nM in experiment [6]; 1.1 nM in [7]; 190 nM in [8]; 11000 nM in experiment [9]; 20 nM in [10]. The koff stood at 0.0016 s⁻¹ in experiment [6]; 0.00066 s⁻¹ in [7]; 0.0089 s⁻¹ in experiment [8]; 0.042 s⁻¹ in experiment [9]; 0.0021 s⁻¹ in experiment [10]. The on-rate constant (kon) in experiment [6] stood at 370000 M⁻¹ s⁻¹; in [7], 600000 M⁻¹ s⁻¹; in experiment [8] it was 48000 M⁻¹ s⁻¹; in [9] it was 3800 M⁻¹ s⁻¹; in [10] it was 110000 M⁻¹ s⁻¹.

In general, Kd refers to the equilibrium constant for the complex coming apart. A higher Kd goes with weaker binding. The term koff denotes a measure of how fast the partners let go of each other. Low values mean slow dissociation, high ones fast dissociation. Usually kon stands for the rate constant with which the complex forms. A lower kon goes with slower complex formation.
